From patent publication US20200270351A1 (Janssen / Centocor, published 2020)

Molecular target: T1, mutant L858R/T790M EGFR on NCI-H1975 cells (human, UniProt P00533 25-1210)
T1 construct: whole, on cells; these cells carry both this EGFR and wild type c-Met; also called H1975 target cells; HER1
Assay: confocal imaging of AF647-labeled antibody in co-culture of M1 or M2c macrophages and H1975 target cells (data not shown)
Procedure: Differentiated macrophages were harvested and plated onto CellCarrier96 ultra plates at 1,00,000 cells/well (Perkin-Elmer; Cat#6055302) overnight. Assays were performed using both adhered and non-adhered target cells. For assays with adhered target cells, the H1975 NucLight Red cells were plated at 20,000/well, adhered for 4 hours, then treated with labeled Ab cocktail for 1 hour at 4° C.

Row | Binder | binding result
1 | JNJ-372.IgG2sigma (Fc effector silent JNJ-372) (bispecific antibody, V domains shown, Used AF488- or AF647-labeled in the assays; also called IgG2σ; EGFR/cMet IgG2G Ab) VH 1: QVQLVESGGGVVQPGRSLRLSCAASGFTFSTYGMHWVRQAPGKGLEWVAVIWDDGSYKYYGDSVKGRFTISRDNSKNTLYLQMNSLRAEDTAVYYCARDGITMVRGVMKDYFDYWGQGTLVTVSS VL 1: AIQLTQSPSSLSASVGDRVTITCRASQDISSALVWYQQKPGKAPKLLIYDASSLESGVPSRFSGSESGTDFTLTISSLQPEDFATYYCQQFNSYPLTFGGGTKVEIK VH 2: QVQLVQSGAEVKKPGASVKVSCETSGYTFTSYGISWVRQAPGHGLEWMGWISAYNGYTNYAQKLQGRVTMTTDTSTSTAYMELRSLRSDDTAVYYCARDLRGTNYFDYWGQGTLVTVSS VL 2: DIQMTQSPSSVSASVGDRVTITCRASQGISNWLAWFQHKPGKAPKLLIYAASSLLSGVPSRFSGSGSGTDFTLTISSLQPEDFATYYCQQANSFPITFGQGTRLEIK | binds
2 | JNJ-61186372 (JNJ-372), IgG1 anti-EGFR/c-Met bispecific antibody (bispecific antibody, Produced in a cell line incorporating low levels (<9%) of fucose) heavy 1: not shown light 1: not shown heavy 2: not shown light 2: DIQMTQSPSSVSASVGDRVTITCRASQGISNWLAWFQHKPGKAPKLLIYAASSLLSGVPSRFSGSGSGTDFTLTISSLQPEDFATYYCQQANSFPITFGQGTRLEIKRTVAAPSVFIFPPSDEQLKSGTASVVCLLNNFYPREAKVQWKVDNALQSGNSQESVTEQDSKDSTYSLSSTLTLSKADYEKHKVYACEVTHQGLSSPVTKSFNRGEC | binds
